Target: the molecule itself
Test: SDS-resistant oligomers on SDS-PAGE and western blot; PAE cells stably expressing the tagged transporter, vehicle (DMSO) or 20 µM AIM-100 for 2 hr at 37°C (also after cocaine, dopamine, amphetamine, modafinil, KRCA-0008, CHC siRNA, at 4°C or 20°C); lysis in TGH buffer, Laemmli buffer (2% SDS, 5% β-mercaptoethanol) 5 min at 95°C, 7.5% SDS-PAGE, blot with GFP antibody; oligomers (O) against monomers (M)

B1: YFP-DAT additionally tagged with an extracellular hemagglutinin (HA) epitope (YFP-HA-DAT) (natural protein, human, UniProt Q01959 1-620, looked up)
chain: MSKSKCSVGLMSSVVAPAKEPNAVGPKEVELILVKEQNGVQLTSSTLTNPRQSPVEAQDRETWGKKIDFLLSVIGFAVDLANVWRFPYLCYKNGGGAFLVPYLLFMVIAGMPLFYMELALGQFNREGAAGVWKICPILKGVGFTVILISLYVGFFYNVIIAWALHYLFSSFTTELPWIHCNNSWNSPNCSDAHPGDSSGDSSGLNDTFGTTPAAEYFERGVLHLHQSHGIDDLGPPRWQLTACLVLVIVLLYFSLWKGVKTSGKVVWITATMPYVVLTALLLRGVTLPGAIDGIRAYLSVDFYRLCEASVWIDAATQVCFSLGVGFGVLIAFSSYNKFTNNCYRDAIVTTSINSLTSFSSGFVVFSFLGYMAQKHSVPIGDVAKDGPGLIFIIYPEAIATLPLSSAWAVVFFIMLLTLGIDSAMGGMESVITGLIDEFQLLHRHRELFTLFIVLATFLLSLFCVTNGGIYVFTLLDHFAAGTSILFGVLIEAIGVAWFYGVGQFSDDIQQMTGQRPSLYWRLCWKLVSPCFLLFVVVVSIVTFRPPHYGAYIFPDWANALGWVIATSSMAMVPIYAAYKFCSLPGSFREKLAYAIAPEKDRELVDRGEVRQFTLRHWLKV
notes: Dopamine transporter (DAT), human; Monomer runs at 95 kDa, SDS-resistant oligomer at about 290 kDa; also called dopamine transporter; human DAT; source: PAE cells, stably expressed, in lysate
fold increase of the fraction of the ~290 kDa oligomer species with AIM-100 against vehicle: > 5 fold
stoichiometry N: ~3
